Measurements reported in patent US20210206856A1 (PANDION OPERATIONS, published 2021).

T1: mouse MAdCAM expressed on cells (mouse, UniProt Q61826 22-405)
T1 construct: whole, on cells
T1 sequence (looked up): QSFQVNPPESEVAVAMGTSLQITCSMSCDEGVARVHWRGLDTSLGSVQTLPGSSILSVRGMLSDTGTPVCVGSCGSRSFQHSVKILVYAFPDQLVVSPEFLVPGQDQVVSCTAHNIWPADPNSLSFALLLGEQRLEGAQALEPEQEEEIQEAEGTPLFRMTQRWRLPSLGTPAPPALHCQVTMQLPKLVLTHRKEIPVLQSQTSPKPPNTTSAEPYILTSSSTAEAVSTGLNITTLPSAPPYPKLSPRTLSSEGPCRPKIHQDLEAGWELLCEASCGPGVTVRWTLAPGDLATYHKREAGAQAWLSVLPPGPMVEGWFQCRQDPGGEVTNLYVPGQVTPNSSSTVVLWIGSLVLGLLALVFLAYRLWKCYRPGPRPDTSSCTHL

T2: human MAdCAM expressed on cells (human, UniProt Q13477 19-382)
T2 construct: whole, on cells; also called MADCAM1
T2 sequence (looked up): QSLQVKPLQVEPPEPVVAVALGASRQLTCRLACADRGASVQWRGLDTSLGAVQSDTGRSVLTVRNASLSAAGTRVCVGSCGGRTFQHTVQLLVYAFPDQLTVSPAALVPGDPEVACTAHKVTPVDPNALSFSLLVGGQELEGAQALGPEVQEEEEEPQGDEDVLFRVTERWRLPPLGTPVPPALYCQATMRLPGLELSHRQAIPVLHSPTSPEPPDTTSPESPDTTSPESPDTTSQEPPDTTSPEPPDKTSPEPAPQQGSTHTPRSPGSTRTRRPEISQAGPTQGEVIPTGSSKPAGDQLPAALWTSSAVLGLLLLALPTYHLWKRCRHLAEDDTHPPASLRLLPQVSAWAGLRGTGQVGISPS


Legend:
[1] = target: T1, mouse MAdCAM expressed on cells; assay: cell binding
[2] = target: T2, human MAdCAM expressed on cells; assay: cell binding

Row | binding result [1] | binding result [2] | Binder
1 | no binding | binds | MAdCAM Antibody Table 2 Clone 72 (antibody, human IgG1, V domains shown) VH: QVQLVQSGAEVKKPGASVKVSCKASGYTFTSYYMHWVRQAPGQGLEWMGVINPIGGTTTYAQKFQGRVTMTRDTSTSTVYMELSSLRSEDTAVYYCASGAPSYYYYGMDVWGQGTLVTVSS VL: DIQMTQSPSSLSASVGDRVTITCRASQSISSYLNWYQQKPGKAPKLLIYGTSYLATGVPSRFSGSGSGTDFTLTISSLQPEDFATYYCQQSYSTPLTFGQGTKVEIK
2 | no binding | binds | MAdCAM Antibody Table 2 Clone 70 (antibody, human IgG1, V domains shown) VH: QVQLVQSGAEVKKPGASVKVSCKASGYPFTDYYMHWVRQAPGQGLEWMGWIKPNSGDTEYAQKFQGRVTMTRDTSTSTVYMELSSLRSEDTAVYYCARDRFVGKPDYYYYGMDVWGQGTMVTVSS VL: DIQMTQSPSSLSASVGDRVTITCRASQSISVWLAWYQQKPGKAPKLLIYAASSLQSGVPSRFSGSGSGTDFTLTISSLQPEDFATYYCQQSYDTPYTFGQGTKLEIK
3 | no binding | binds | MAdCAM Antibody Table 2 Clone 71 (antibody, human IgG1, V domains shown) VH: QVQLVQSGAEVKKPGASVKVSCKASGYTFTSYYMHWVRQAPGQGLEWMGIINPSGGSTSYAQKFQGRVTMTRDTSTSTVYMELSSLRSEDTAVYYCARDSVAGTGGRYYGMDVWGQGTLVTVSS VL: DIQMTQSPSSLSASVGDRVTITCRASQGISNYFAWYQQKPGKAPKLLIYAASSLQGGVPSRFSGSGSGTDFTLTISSLQPEDFATYYCQQSYSLPYTFGQGTKLEIK
4 | no binding | binds | MAdCAM Antibody Table 2 Clone 67 (antibody, human IgG1, V domains shown) VH: QVQLVQSGAEVKKPGASVKVSCKASGYTFTGYYMHWVRQAPGQGLEWMGMIYPRDGSTSYAQKFQGRVTMTRDTSTSTVYMELSSLRSEDTAVYYCAMTGWGYGMDVWGKGTTVTVSS VL: DIQMTQSPSSLSASVGDRVTITCRASQGINNYLAWYQQKPGKAPKLLIYDASTLQSGVPSRFSGSGSGTDFTLTISSLQPEDFATYYCQQSYSAPPTFGQGTKLEIK
5 | no binding | binds | MAdCAM Antibody Table 2 Clone 69 (antibody, human IgG1, V domains shown) VH: QVQLVQSGAEVKKPGASVKVSCKASGYTFTSYYMHWVRQAPGQGLEWMGIIDPSGGSTSYAQKFQGRVTMTRDTSTSTVYMELSSLRSEDTAVYYCAREEWSSGGVGYFDYWGQGTLVTVSS VL: DIQMTQSPSSLSASVGDRVTITCRASQGISSYLAWYQQKPGKAPKLLIYATSSLQTGVPSRFSGSGSGTDFTLTISSLQPEDFATYYCQQTYSIPITFGQGTRLEIK
6 | no binding | binds | MAdCAM Antibody Table 2 Clone 58 (antibody, human IgG1, V domains shown) VH: EVQLLESGGGLVQPGGSLRLSCAASGFSVSSNYMSWVRQAPGKGLEWVAGISYDGSSKPYADSVKGRFTISRDNSKNTLYLQMNSLRAEDTAVYYCARSRGIAARPLQHWGQGTLVTVSS VL: not shown
7 | no binding | binds | MAdCAM Antibody Table 2 Clone 61 (antibody, human IgG1, V domains shown) VH: QVQLVQSGAEVKKPGASVKVSCKASGDTFTGYYIHWVRQAPGQGLEWMGWINPNSGGTNYAQKFQGRVTMTRDTSTSTVYMELSSLRSEDTAVYYCARSGLWLGSYYGMDVWGQGTLVTVSS VL: DIQMTQSPSSLSASVGDRVTITCRASQTISIWLAWYQQKPGKAPKLLIYDASTLQSGVPSRFSGSGSGTDFTLTISSLQPEDFATYYCQQYSSYPLTFGQGTKVEIK

Continued, binder first:

Row | Binder | binding result [1] | binding result [2]
8 | MAdCAM Antibody Table 2 Clone 76 (antibody, human IgG1, V domains shown) VH: EVQLLESGGGLVQPGGSLRLSCAASGFTFDDYTMHWVRQAPGKGLEWVSDISGSGGSTYYADSVKGRFTISRDNSKNTLYLQMNSLRAEDTAVYYCAKDVVVAGTPLHFDYWGQGTLVTVSS VL: DIQMTQSPSSLSASVGDRVTITCQASQDISNYLNWYQQKPGKAPKLLIYAASYLQSGVPSRFSGSGSGTDFTLTISSLQPEDFATYYCQQAHNYPITFGQGTRLEIK | binds | binds
9 | MAdCAM Antibody Table 2 Clone 77 (antibody, human IgG1, V domains shown) VH: EVQLLESGGGLVQPGGSLRLSCAASEFTFSNAWMSWVRQAPGKGLEWVASISSTSAYIDYADSVKGRFTISRDNSKNTLYLQMNSLRAEDTAVYYCAREVVGATTFDYWGQGTLVTVSS VL: DIQMTQSPSSLSASVGDRVTITCRASQSISTWLAWYQQKPGKAPKLLIYAASSLQSGVPSRFSGSGSGTDFTLTISSLQPEDFATYYCQQANAFPPTFGQGTRLEIK | binds | binds
10 | MAdCAM Antibody Table 2 Clone 66 (antibody, human IgG1, V domains shown) VH: QVQLVQSGAEVKKPGASVKVSCKASGYTFTGHYMHWVRQAPGQGLEWMGIINPSGGSTSYAQKFQGRVTMTRDTSTSTVYMELSSLRSEDTAVYYCARDGAWFGEEYYYGMDVWGQGTTVTVSS VL: DIQMTQSPSSLSASVGDRVTITCRASQGISNWLAWYQQKPGKAPKLLIYDASNLETGVPSRFSGSGSGTDFTLTISSLQPEDFATYYCQQYYSFPLYTFGQGTKVEIK | no binding | binds
11 | MAdCAM Antibody Table 2 Clone 62 (antibody, human IgG1, V domains shown) VH: QVQLVQSGAEVKKPGASVKVSCKASGYTFTSYDINWVRQAPGQGLEWMGWINPNSGTTGYAQKFQGRVTMTRDTSTSTVYMELSSLRSEDTAVYYCARSPYYYYGMDVWGQGTTVTVSS VL: DIQMTQSPSSLSASVGDRVTITCRASHFISRWVAWYQQKPGKAPKLLIYAASTLQSGVPSRFSGSGSGTDFTLTISSLQPEDFATYYCQQSYSGISFGPGTKVDIK | no binding | binds
12 | MAdCAM Antibody Table 2 Clone 78 (antibody, V domains shown) VH: QVQLVQSGAEVKKPGSSVKVSCKASGGTFSSYAISWVRQAPGQGLEWMGWMEPHTGNTRYAQKFQGRVTITADESTSTAYMELSSLRSEDTAVYYCAKGGFSWFDPWGQGTLVTVSS VL: not shown | binds | binds
13 | MAdCAM Antibody Table 2 Clone 63 (antibody, human IgG1, V domains shown) VH: EVQLLESGGGLVQPGGSLRLSCAASGFTFNNYGMNWVRQAPGKGLEWVSRINSDGSSTSYADSVKGRFTISRDNSKNTLYLQMNSLRAEDTAVYYCARGAYYYYYMDVWGQGTLVTVSS VL: EIVMTQSPATLSVSPGERATLSCRASQSVSGSYLAWYQQKPGQAPRLLIYATSSRASGIPARFSGSGSGTEFTLTISSLQSEDFAVYYCQQYYSGLTFGQGTKVEIK | no binding | binds
14 | MAdCAM Antibody Table 2 Clone 64 (antibody, human IgG1, V domains shown) VH: EVQLLESGGGLVQPGGSLRLSCAASGFTFSNSDMNWVRQAPGKGLEWVAHIWNDGSQKYYADSVKGRFTISRDNSKNTLYLQMNSLRAEDTAVYYCARDRTDPGYSSAMDVWGQGTTVTVSS VL: DIQMTQSPSSLSASVGDRVTITCRASQDIRNYLGWYQQKPGKAPKLLIYDASSLETGVPSRFSGSGSGTDFTLTISSLQPEDFATYYCQQATSLPLTFGGGTKVEIK | no binding | binds
15 | MAdCAM Antibody Table 2 Clone 73 (antibody, human IgG1, V domains shown) VH: QVQLVQSGAEVKKPGASVKVSCKASGYTFTSNYVHWVRQAPGQGLEWMGRINPHSGDTSYAQKFQGRVTMTRDTSTSTVYMELSSLRSEDTAVYYCARAGQLWSDWYFDLWGRGTLVTVSS VL: DIQMTQSPSSLSASVGDRVTITCQASQDIRNYLNWYQQKPGKAPKLLIYAATALRTGVPSRFSGSGSGTDFTLTISSLQPEDFATYYCQQSYSHPLTFGQGTKVEIK | no binding | binds
16 | MAdCAM Antibody Table 2 Clone 60 (antibody, human IgG1, V domains shown) VH: EVQLLESGGGLVQPGGSLRLSCAASGFTFSDHGMHWVRQAPGKGLEWVSVIYGGESTYYADSVKGRFTISRDNSKNTLYLQMNSLRAEDTAVYYCARDPAVAGGGIFDYWGQGTLVTVSS VL: DIQMTQSPSSLSASVGDRVTITCRASQGISNYLAWYQQKPGKAPKLLIYDASNLETGVPSRFSGSGSGTDFTLTISSLQPEDFATYYCQQSYSTCYTFGQGTKLEIK | binds | binds
17 | MAdCAM Antibody Table 2 Clone 68 (antibody, human IgG1, V domains shown) VH: EVQLLESGGGLVQPGGSLRLSCAASGFTFGDYAMSWVRQAPGKGLEWVAVVSYDGTNKYYADSVKGRFTISRDNSKNTLYLQMNSLRAEDTAVYYCAKDICSSTSCYFDLWGRGTLVTVSS VL: DIQMTQSPSSLSASVGDRVTITCRASQNINNYVNWYQQKPGKAPKLLIYDASNLETGVPSRFSGSGSGTDFTLTISSLQPEDFATYYCQQANSFPPTFGQGTRLEIK | no binding | binds
18 | MAdCAM Antibody Table 2 Clone 57 (antibody, human IgG1, V domains shown) VH: EVQLLESGGGLVQPGGSLRLSCAASGFSVSSNYMSWVRQAPGKGLEWVAGISYDGSSKPYADSVKGRFTISRDNSKNTLYLQMNSLRAEDTAVYYCARSRGIAARPLQHWGQGTLVTVSS VL: not shown | no binding | binds
19 | MAdCAM Antibody Table 2 Clone 75 (antibody, human IgG1, V domains shown) VH: EVQLLESGGGLVQPGGSLRLSCAASGFTFSDFWMHWVRQAPGKGLEWISYISGDSGYTNYADSVKGRFTISRDNSKNTLYLQMNSLRAEDTAVYYCARDRPYYYYMDVWGKGTTVTVSS VL: DIQMTQSPSSLSASVGDRVTITCRASQSVSRSLAWYQQKPGKAPKLLIYAASSLQSGVPSRFSGSGSGTDFTLTISSLQPEDFATYYCQQYKSYPVTFGQGTKVEIK | binds | binds
